Test results from patent US20080199851A1.
“And” between values parts separate entries of the source, which are not always exact repeats. Equal values may be shown once.

Experiments:
[1] = molecular target: Recombinant H5 hemagglutinin; experiment: lateral-flow sandwich, 3C8 line + 3G4-gold, 50 uL buffer, 15 min
[2] = molecular target: Recombinant H5 hemagglutinin; experiment: lateral-flow sandwich, 3C8 line + 3G4-gold, 50 uL buffer, 20 min
[3] = molecular target: Recombinant H5 hemagglutinin; experiment: lateral-flow sandwich, 3C8 line + 3G4-gold, 50 uL buffer, 25 min
[4] = molecular target: Recombinant H5 hemagglutinin; experiment: lateral-flow sandwich, 3C8 line + 3G4-gold, 50 uL buffer, 30 min
[5] = molecular target: Recombinant H5 hemagglutinin; experiment: lateral-flow sandwich, 3C8 line + 3G4-gold, 60 uL buffer, 15 min
[6] = molecular target: Recombinant H5 hemagglutinin; experiment: lateral-flow sandwich, 3C8 line + 3G4-gold, 60 uL buffer, 20 min
[7] = molecular target: Recombinant H5 hemagglutinin; experiment: lateral-flow sandwich, 3C8 line + 3G4-gold, 60 uL buffer, 25 min
[8] = molecular target: Recombinant H5 hemagglutinin; experiment: lateral-flow sandwich, 3C8 line + 3G4-gold, 60 uL buffer, 30 min
[9] = molecular target: Recombinant H5 hemagglutinin; experiment: lateral-flow sandwich, 3C8 line + 3G4-gold, 70 uL buffer, 15 min
[10] = molecular target: Recombinant H5 hemagglutinin; experiment: lateral-flow sandwich, 3C8 line + 3G4-gold, 70 uL buffer, 20 min
[11] = molecular target: Recombinant H5 hemagglutinin; experiment: lateral-flow sandwich, 3C8 line + 3G4-gold, 70 uL buffer, 25 min
[12] = molecular target: Recombinant H5 hemagglutinin; experiment: lateral-flow sandwich, 3C8 line + 3G4-gold, 70 uL buffer, 30 min
[13] = molecular target: Recombinant H5 hemagglutinin; experiment: lateral-flow sandwich, 3C8 line + 3G4-gold, 80 uL buffer, 15 min
[14] = molecular target: Recombinant H5 hemagglutinin; experiment: lateral-flow sandwich, 3C8 line + 3G4-gold, 80 uL buffer, 20 min
[15] = molecular target: Recombinant H5 hemagglutinin; experiment: lateral-flow sandwich, 3C8 line + 3G4-gold, 80 uL buffer, 25 min
[16] = molecular target: Recombinant H5 hemagglutinin; experiment: lateral-flow sandwich, 3C8 line + 3G4-gold, 80 uL buffer, 30 min
[17] = molecular target: Recombinant H5 hemagglutinin; experiment: lateral-flow sandwich, 3C8 line + 3G4-gold, 50 uL buffer, 15 min; remark: listed apart in the source
[18] = molecular target: Recombinant H5 hemagglutinin; experiment: lateral-flow sandwich, 3C8 line + 3G4-gold, 60 uL buffer, 15 min; remark: listed apart in the source
[19] = molecular target: Recombinant H5 hemagglutinin; experiment: lateral-flow sandwich, 3C8 line + 3G4-gold, 70 uL buffer, 15 min; remark: listed apart in the source
[20] = molecular target: Recombinant H5 hemagglutinin; experiment: lateral-flow sandwich, 3C8 line + 3G4-gold, 100 uL buffer, 15 min
[21] = molecular target: Recombinant H5 hemagglutinin; experiment: lateral-flow sandwich, 3C8 line + 3G4-gold, 100 uL buffer, 20 min
[22] = molecular target: Recombinant H5 hemagglutinin; experiment: lateral-flow sandwich, 3C8 line + 3G4-gold, 100 uL buffer, 25 min
[23] = molecular target: Recombinant H5 hemagglutinin; experiment: lateral-flow sandwich, 3C8 line + 3G4-gold, 100 uL buffer, 30 min

B1: monoclonal antibody 3C8 (antibody, V domains shown)
VH: QIQLVQSGPELKKPGETVKISCKASGYSFTNYGMNWVKQAPGKGLKWMGWINTYTGEPAYADDFKGRFAFSLETSASTAYLQINNLKNEDTATYFCARWNRDAMDYWGQGTSVTVSS
VL: DIVLTQSPASLAVSLGQRATISCRASESVDSSDNSLMHWYQQKPGQPPKLLIYRASNLESGIPARFSGSGSRTDFTLTINPVEADDVATYYCQQSIGDPPYTFGGGTKLEIKR
Peak Intensity [1]: 55.6 and 51.1
Peak Intensity [2]: 62.3 and 57.3
Peak Intensity [3]: 63.1 and 55.4
Peak Intensity [4]: 62.5 and 62.6
Peak Intensity [5]: 53.5 and 51.6
Peak Intensity [6]: 65.7 and 63.8
Peak Intensity [7]: 68.5 and 66.2
Peak Intensity [8]: 68.9 and 66.5
Peak Intensity [9]: 45.6 and 42.1
Peak Intensity [10]: 57.9 and 57
Peak Intensity [11]: 60.4 and 61.7
Peak Intensity [12]: 60.7 and 63.9
Peak Intensity [13]: 39.6 and 42.9
Peak Intensity [14]: 53.7 and 57.9
Peak Intensity [15]: 59.8 and 64.7
Peak Intensity [16]: 61.5 and 65.4
Peak Intensity [17]: 56.9 and 57.8
Peak Intensity [18]: 50.2 and 51.2
Peak Intensity [19]: 46.8 and 47.9
Peak Intensity [20]: 35.2 and 30.8
Peak Intensity [21]: 49.2 and 44.9
Peak Intensity [22]: 54.6 and 49.3
Peak Intensity [23]: 55.6 and 49.8
